The assay deals with human AXL Ig1 domain fused to human Fc (Homo sapiens, UniProt P30530). In words: BLI. A general note: In BLI a coated tip is dipped into the sample, and binding shifts an interference pattern.

Where a chain is given by its changes, count along the chain named. Names may count otherwise.

B1: parental scFv-osmY fusion protein (tilvestamab scFv) (scFv, V domains shown)
VH: EVQLVESGGGLVQPGGSLRLSCAASGYSFTDFYINWVRQAPGKGLEWVARIFPGGDNTYYNEKFKGRFTLSADTSKSTAYLQMNSLRAEDTAVYYCARRGLYYAMDYWGQGTLVTVSS
VL: DIQMTQSPSSLSASVGDRVTITCRSSQSLVHSNGIPYLHWYQQKPGKAPKLLIYRVSNRFSGVPSRFSGSGSGTDFTLTISSLQPEDFATYYCSQGTHVPPTFGQGTKVEIK
With B1, the binding result is on record as “binds”.

B2: tilvestamab scFv-osmY L102T (scFv, V domains shown)
VH: B1 VH with L101T
VL: B1 VL
On to B2, for which the binding result is reported as “binds”.

B3: tilvestamab scFv-osmY F33Y (scFv, V domains shown)
VH: B1 VH with F32Y
VL: B1 VL
Consider B3, for which the binding result was “binds”.

B4: tilvestamab scFv-osmY L102A (scFv, V domains shown)
VH: B1 VH with L101A
VL: B1 VL
For the molecule B4, the binding result is “binds”.

B5: tilvestamab scFv-osmY G101A (scFv, V domains shown)
VH: B1 VH with G100A
VL: B1 VL
For B5, the binding result was “binds”.

B6: tilvestamab scFv-osmY F33A (scFv, V domains shown)
VH: B1 VH with F32A
VL: B1 VL
Turning to B6, the binding result is “binds”.

B7: tilvestamab scFv-osmY Y103A (scFv, V domains shown)
VH: B1 VH with Y102A
VL: B1 VL
In the case of B7, the binding result is on record as “binds”.

B8: tilvestamab scFv-osmY Y103S (scFv, V domains shown)
VH: B1 VH with Y102S
VL: B1 VL
On to B8, for which the binding result is given as “binds”.

B9: tilvestamab scFv-osmY P238A (scFv, V domains shown)
VH: B1 VH
VL: B1 VL with P101A
B9: the binding result is on record as “binds”.

B10: tilvestamab scFv-osmY L102Y (scFv, V domains shown)
VH: B1 VH with L101Y
VL: B1 VL
Turning to B10, the binding result was “binds”.

B11: tilvestamab scFv-osmY Y108A (scFv, V domains shown)
VH: B1 VH with Y107A
VL: B1 VL
As to B11, the binding result was “binds”.

B12: tilvestamab scFv-osmY G233S (scFv, V domains shown)
VH: B1 VH
VL: B1 VL with G96S
Turning to B12, the binding result is “binds”.

B13: tilvestamab scFv-osmY F33T (scFv, V domains shown)
VH: B1 VH with F32T
VL: B1 VL
Consider B13, for which the binding result was “binds”.

B14: tilvestamab scFv-osmY I35A (scFv, V domains shown)
VH: B1 VH with I34A
VL: B1 VL
For the molecule B14, the binding result is on record as “binds”.

B15: tilvestamab scFv-osmY G233A (scFv, V domains shown)
VH: B1 VH
VL: B1 VL with G96A
For B15, the binding result was “binds”.

B16: tilvestamab scFv-osmY F33S (scFv, V domains shown)
VH: B1 VH with F32S
VL: B1 VL
Take B16: the binding result is listed as “binds”.

B17: tilvestamab scFv-osmY T31A (scFv, V domains shown)
VH: B1 VH with T30A
VL: B1 VL
As to B17, the binding result is “binds”.

B18: tilvestamab scFv-osmY D32A (scFv, V domains shown)
VH: B1 VH with D31A
VL: B1 VL
B18: the binding result is given as “binds”.

B19: tilvestamab scFv-osmY L102S (scFv, V domains shown)
VH: B1 VH with L101S
VL: B1 VL
Consider B19, for which the binding result is given as “binds”.

B20: tilvestamab scFv-osmY M106A (scFv, V domains shown)
VH: B1 VH with M105A
VL: B1 VL
As to B20, the binding result is “binds”.

Source of the values: publication doi:10.1101/2024.12.12.628227 (bioRxiv, 2024).
